Reference: the RNAGym collection of RNA variant scans (doi:10.1073/pnas.2313332121)
Variants at the floor of the assay were thinned out.

B1: TPR 5TU (parent)
chain: GGAUCUUCUCGAUCUAACAAAAAAGACAAAUCUGCCACAAAGCUUGAGAGCAUCUUCGGAUGCAGAGGCGGCAGCCUUCGGUGGCGCGAUAGCGCCAACGUUCUCAACUAUGACACGCAAAACGCGUGCUCCGUUGAAUGGAGUUUAUCAUG

Variants of: B1
Experiment: polymerase ribozyme fitness, log enrichment relative to wild type (log ratio); higher = more active; in vitro selection for triplet polymerase activity
Procedure, shortened: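 To select mutant libraries of each subunit of a heterodimeric triplet polymerase ribozyme, built by PCR and transcribed, each was annealed with a biotinylated primer, partner subunit and triplets, then incubated frozen at −7 °C. Extended constructs were gel-excised, captured on streptavidin beads and amplified by RT-PCR, in one round carried out in triplicate. Illumina sequencing of input and output libraries kept genotypes with ≥10 input reads and ≥1 read per output. Fitness is the base-2 logarithm of genotype enrichment relative to wild-type enrichment, from inverse-variance-weighted replicate averages.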

Variant	polymerase ribozyme fitness (log ratio)
U55G C116G	0.357
U55C C85A A119G A137U	≤ -4.2
U56A G84A A91G	-3.59
U55C C57G	0.125
U56A G58A A73G C96U U102G G117A U135A G141A	≤ -4.2
U56A C96A	-0.833
U56G G94A U139G	-1.18
C54U G141A	-0.888
U55A C85U C114G G128A	≤ -4.2
U55A C99G	-1.61
U55G C93U C116U G141A U144G	-2.63
U55G C76A G92A C108U	≤ -4.2
U55A G92U G124C	-0.918
C57A C96U U146G	-0.855
C54U U55A A98U U144A	-1.24
U56G C57U G62U A66G C75U G83U	≤ -4.2
C54U G81A C93U C105A	-2.59
U56C G80U	-0.2
U55G A73U U146C	-1.74
U55G C57A G59C C85A A115G A119U	-2.01
U55C U82G C95U	-0.677
U55A U82G G92A C103U G124A	-3.62
U55A G62C G68U C96U A121U	≤ -4.2
U56G C57U C96U	-0.884

Variant	polymerase ribozyme fitness (log ratio)
U55A A97G	-0.39
U55A A60G U102A U148A	-3.91
U56A G136U	-2.72
U55A C57G	-0.56
U55G C69U G71U G128A	≤ -4.2
C54U U55A C87A	≤ -4.2
U56C	-0.389
U56A	-0.324
U56G	-0.573
U56A G88C C99U A119G	≤ -4.2
U55C G74U	≤ -4.2
U55A G58U C79U G88A A106G	≤ -4.2
U55G C85A C99U G136A	-3.43
U55A C87U A137C	-3.92
U55A G65U G70U C87A C95U A98G A137C G141A G143C	≤ -4.2
U56A A73U C76A A97U	≤ -4.2
U56A C85U U144C	-0.306
C57A A97U G124A G140U	-4.13
U55G C125G U151G	≤ -4.2
U56A C93U U102G G140A	≤ -4.2
U55A C57A C93U G126U	-0.627
U55A G128C U146A	-4.09
U55G G59U G67C U77A C96G A119C U139A U148G	≤ -4.2
U55A A73G U77G A91C C116A G141A	≤ -4.2

Variant	polymerase ribozyme fitness (log ratio)
C54U U55A A120G G143U	-2.38
U55A C85G C125U U144A	-3.47
C54U U55G G80U A91G A98C	-3.9
U55A G62C G117A C131G	≤ -4.2
U55A G68A C76A C96G C114G G133A A138U	≤ -4.2
U55A C93U A150C	-4.02
U56A G80C C93A C95A U102G C114A A150U	≤ -4.2
C54U G117C C123U	-0.0466
U56C G83U	-0.525
U55A A120U	-0.857
U56A G81U C93G	-3.18
U55A A98U U111C	-4.16
U56A C87U C96U C103G	-3.09
U56C C87G	≤ -4.2
C54U U56A C93U C131G G133A U146A G152U	-4
C57A C114U A120G C129U	≤ -4.2
U55G C57A G62C C79U U109G	≤ -4.2
U55G G86U C95U	-0.739
C57A A113G	-1.32
C54U U55A C93U	-0.48
U55A C116U	-0.684
C57A C85A A147G	-1.09
C54U G68A A97G G124A U144C	-3.84
U56G G62U C85A A119C C131U	-1.78

Variant	polymerase ribozyme fitness (log ratio)
U55C A91U U144A	≤ -4.2
U56A U146A	-0.732
C57G A73G U82A C96G U101C C116A	-3.9
U55G G58C U144G	-0.023
C54U U82A	-0.0444
U56A A89C	-0.735
U56A A121C C149G	-3.14
U56G A119C U146G	-1.1
C57A G92C G133A	-4.05
U55A C69A C76U U82G	-3.45
U55G G94A A98U	-0.256
C54U G80U	-0.459
U55G A73G	-0.595
U55A A119G U148G	-3.77
U55C G124C	-1.14
C57G A97U	-0.704
C57A G70A U134C	-3.65
U56C U101G A120U C131A	-2.44
U55A U56A C57A C85U G86A C103G	≤ -4.2
U56A G62A U78C G83U	-3.55
U56G U144A	-0.473
U56A G68A	-4.01
U55A C76G U134G	≤ -4.2
U56A A73U G140A	-4.06

Variant	polymerase ribozyme fitness (log ratio)
C57A A91G C132G	-4.05
U55A A106G A113U G136C	≤ -4.2
U55G U104A A122G A137C	≤ -4.2
C54U U56A A60G G84U G126U	-1.81
U56A G128A	-3.15
U56A C114G	-3.1
U56A G84C A150G	-3.39
U55G U56A U82A U145A	-1.23
U55G U56A G59C C99G A142G	-2.78
U56A A106G	-0.585
U55G U56A C57G C76A C93A	-3.7
C57A U90A C103G	≤ -4.2
U55A G68A G86U U90A A97U U101A A137C U145C	≤ -4.2
U56G C129U	-0.408
U55A U109G	-1.03
U56A C75U	-0.839
U56A C69A C79U C93G U151A	≤ -4.2
C57A C132U	-0.393
U55A G86A	-1.59
U55A G86U	-1.44
U55A C76G C93U C103G G143A A150U	≤ -4.2
U55A A73G U135A U146C	-0.581
U55C G88A C96U	≤ -4.2
U56A G58A A73U C96G	-1.81

Variant	polymerase ribozyme fitness (log ratio)
U56A G94C A115C A121U U134A A147U	-3.74
U55A A98U U135A	-1.42
U55A A60C C85U A89G	-4.15
U55G G71A C87G G112C	≤ -4.2
U56C C57A	0.0626
U55A A97G C116A	1.12
U56C C87U A110G	-3.04
U56A G58U A98U G100C	≤ -4.2
U55G U82A G84U U102C	-3.21
U55G C63A U134G	-3.01
U56A G58U G94C U145G	0.0333
U55G C69A C87U C105A A138U	≤ -4.2
U56A C76G	≤ -4.2
U56A U101G U144C	-0.262
U55A C85A U102A	≤ -4.2
U56A G88C U145G	-4.05
U56A U61G U134G	-3.93
U55A A66U A98G A122U A150C	≤ -4.2
U56A U148C	-1.25
C57A G83A	-0.934
C54U C118U U145A	-0.457
U55A C96U	-0.113
C57A A66G C87A	≤ -4.2
C54U G59A C76A C85U	0.107

Variant	polymerase ribozyme fitness (log ratio)
U55A G59A U61C U135C A142G	-3.84
U55A G74A	-3.26
U55A C85A C93G	≤ -4.2
U56A C87U	-1.66
U55A G83A G126A	0.425
U56A G83A C87U	-3.83
C54U G84A	-0.613
C54U G58A C93U	-1.1
U55G C87A	-4.1
U55A A91U C108A U130C G133U	≤ -4.2
U55A U127A A142U	≤ -4.2
U55G G86U U145A	-0.475
C54U G58A G94U	-0.705
U56A U78G G112C U139C	≤ -4.2
U56A G86C	≤ -4.2
U56A G86U	-0.958
C57A C85U G143A	-0.323
U56A C76G C85U A91G U111G C118U G140A G143A	≤ -4.2
C54U G126U	0.161
U55A G67U C69G C76A A98G	-2.81
U55G G92U G117A A121U A122U U151G	≤ -4.2
C57A G92C	-0.41
C57A G92A	-3.13
